This note sets out measurements from patent US20240175001A1.

In this assay the target is SNAP-25 (rat) (UniProt P60881). The experiment in a line: cell-based or functional assay.
UniProt P60881, sequence (P60881 whole entry): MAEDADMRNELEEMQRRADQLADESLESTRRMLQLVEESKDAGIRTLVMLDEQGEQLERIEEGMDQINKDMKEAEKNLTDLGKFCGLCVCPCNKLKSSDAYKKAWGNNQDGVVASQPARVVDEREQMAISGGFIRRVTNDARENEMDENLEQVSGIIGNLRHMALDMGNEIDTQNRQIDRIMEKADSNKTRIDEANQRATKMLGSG

For the substance native BoNT/A1 (LIST), the pEC50 (percentage SNAP-25 cleavage in rat eSCN, 24 h, Western blot) was 12.3.
